Positions count from the first letter of the chain named. Residues, ends and D or L forms follow the SMILES beside them.
Columns and labels:
YjdL Ala281Phe = target: T1, YjdL Ala281Phe (Escherichia coli, UniProt P39276, A281F); assay: β-Ala-Lys(AMCA) uptake and inhibition assay, YjdL Ala281Phe; assay type: cell-based, E. coli; conditions: for IC50: 0.2 mM β-Ala-Lys(AMCA), 5 min incubation, pH 6.5, ±SEM, n≥3
T1 construct: host or cells: E. coli BL21(DE3)pLysS
T1 sequence (P39276 1-485 A281F): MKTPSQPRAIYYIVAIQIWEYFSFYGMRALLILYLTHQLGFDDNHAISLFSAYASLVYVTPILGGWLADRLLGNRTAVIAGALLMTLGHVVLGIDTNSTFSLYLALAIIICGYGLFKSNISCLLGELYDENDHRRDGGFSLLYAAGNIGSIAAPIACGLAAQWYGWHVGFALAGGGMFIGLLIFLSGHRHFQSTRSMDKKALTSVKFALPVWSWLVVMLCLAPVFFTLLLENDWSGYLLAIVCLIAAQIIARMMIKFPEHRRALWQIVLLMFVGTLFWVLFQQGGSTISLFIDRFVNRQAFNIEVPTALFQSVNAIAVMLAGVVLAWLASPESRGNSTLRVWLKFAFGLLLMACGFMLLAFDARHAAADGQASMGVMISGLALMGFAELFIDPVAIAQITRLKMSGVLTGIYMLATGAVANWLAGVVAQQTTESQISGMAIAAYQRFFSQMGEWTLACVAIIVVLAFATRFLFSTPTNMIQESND
Experimental: (§1) Plasmids were transformed into E. coli BL21(DE3)pLysS cells by heat shock and transformants were selected on agar plates containing 100 µg/mL ampicillin and 34 µg/mL chloramphenicol. Single transformants were inoculated into 2 mL LB-media with antibiotics as above and grown overnight. The cultures were diluted 1∶50 in 5 mL LB-media with antibiotics as above, and at an OD600 of 0.5–0.8 protein expression was induced by the addition of 1 mM isopropyl β-D-1-thiogalactopyranoside (IPTG). The cells were harvested after three hours of induction by centrifugation and resuspended in uptake buffer (50 mM MES pH 6.5, 140 mM NaCl, 5.4 mM KCl, 1.8 mM CaCl2, 0.8 mM MgSO4, and 5 mM glucose).
(§2) Uptake assays were performed as previously described, [20]. In a final assay volume of 100 µL; 0.2 mM β-Ala-Lys-N-7-amino-4-methylcoumarin-3-acetic acid (β-Ala-Lys(AMCA), Biotrend) (10 µL) and various concentrations of ligands (purchased from Bachem or Sigma-Aldrich) or uptake buffer (50 µL) were incubated with bacterial cell suspension (OD600 = 10, 40 µL) at 37°C. After 5 min, the uptake was stopped by addition of 500 µL ice-cold uptake buffer followed by immediate centrifugation and washing twice in ice-cold uptake buffer. Finally the cell pellet was resuspended in 100 µL uptake buffer, and the uptake was quantified by fluorescence measurements (excitation at 340 nm and emission at 460 nm) on a Safire 2 fluorimeter. Non-specific uptake was measured as described above on IPTG-induced E. coli BL21(DE3)pLysS cells harboring the empty pTTQ18 vector. All uptake assay experiments were reproduced at least three times independently and data analyses were performed using GraphPad Prism ver. 5.

WT-YjdL = target: T2, WT-YjdL (Escherichia coli, UniProt P39276); assay: cell-based; assay type: cell-based, E. coli; conditions: for IC50: IC50 (inhibition of β-Ala-Lys(AMCA) uptake), WT-YjdL a
T2 construct: expressed in transfected cells; host or cells: E. coli BL21(DE3)pLysS, pTTQ18-yjdL, IPTG-induced
T2 sequence (P39276 1-485): T1 sequence (P39276 1-485 A281F) with F281A
Experimental: as §1, with “The cells were harvested after three hours of induction by centrifugation and resuspended in uptake buffer (50 mM MES pH 6.5, 140 mM NaCl, 5.4 mM KCl, 1.8 mM CaCl2, 0.8 mM MgSO4, and 5 mM glucose).” left out
as §2

YjdL Tyr25Phe = target: T3, YjdL Tyr25Phe (Escherichia coli, UniProt P39276, Y25F); assay: β-Ala-Lys(AMCA) uptake and inhibition assay, YjdL Tyr25Phe; assay type: cell-based, E. coli; conditions: 0.2 mM β-Ala-Lys(AMCA), 5 min incubation, pH 6.5; ±SEM, n≥3
T3 construct: expressed in transfected cells; host or cells: E. coli BL21(DE3)pLysS, pTTQ18-yjdL mutant (QuikChange)
T3 sequence (P39276 1-485 Y25F): T1 sequence (P39276 1-485 A281F) with Y25F, F281A
Experimental: as §1, §2

[1] = target: YjdL from E. coli, wild type (E. coli) (UniProt P39276)
[2] = target: YdgR-Tyr292Phe (E. coli MG1655) (UniProt P77304)
YjdL Tyr21Phe (E. coli) = YjdL Tyr21Phe (E. coli) (UniProt P39276)
YjdL-Ala281Phe (E. coli) = YjdL-Ala281Phe (E. coli) (UniProt P39276)
YjdL Tyr113Phe (E. coli) = YjdL Tyr113Phe (E. coli) (UniProt P39276)
[3] = target: YdgR-Tyr38Phe (E. coli MG1655) (UniProt P77304)
YjdL Tyr58Phe (E. coli) = YjdL Tyr58Phe (E. coli) (UniProt P39276)
[4] = target: YdgR-Tyr71Phe (E. coli MG1655) (UniProt P77304)
[5] = target: YdgR-Tyr292Ala (E. coli MG1655) (UniProt P77304)
YjdL-Trp278Phe (E. coli) = YjdL-Trp278Phe (E. coli) (UniProt P39276)
[6] = target: YdgR from E. coli, wild type (E. coli MG1655) (UniProt P77304)
YjdL Tyr25Phe (E. coli) = YjdL Tyr25Phe (E. coli) (UniProt P39276)
[7] = target: YjdL from E. coli, wild type (E. coli) (UniProt P39276); remark: listed apart in the source

| Molecule | IC50 (YjdL Ala281Phe) [µM] | increase of IC50 compared to the Ala-Lys value, WT-YjdL (WT-YjdL) | IC50 (WT-YjdL) [µM] | IC50 (YjdL Tyr25Phe) [µM] | decrease of IC50 compared to Ala-Lys, Ala281Phe (YjdL Ala281Phe) | β-Ala-Lys(AMCA) uptake (0.5 mM) left with 50 mM competitor, E. coli cells, pH 6.5 [1] [%] | IC50 of inhibition of β-Ala-Lys(AMCA) uptake into E. coli cells (0.2 mM substrate, 5 min, pH 6.5) [2] [mM] | IC50 of inhibition of β-Ala-Lys(AMCA) uptake into E. coli cells (0.2 mM substrate, 5 min, pH 6.5) (YjdL Tyr21Phe (E. coli)) [mM] | IC50 of inhibition of β-Ala-Lys(AMCA) uptake into E. coli cells (0.2 mM substrate, 5 min, pH 6.5) (YjdL-Ala281Phe (E. coli)) [mM] | IC50 of inhibition of β-Ala-Lys(AMCA) uptake into E. coli cells (0.2 mM substrate, 5 min, pH 6.5) (YjdL Tyr113Phe (E. coli)) [mM] | IC50 of inhibition of β-Ala-Lys(AMCA) uptake into E. coli cells (0.5 mM substrate, 15 min, pH 6.5) [3] [mM] | IC50 of inhibition of β-Ala-Lys(AMCA) uptake into E. coli cells (0.5 mM substrate, 15 min, pH 6.5) (YjdL Tyr58Phe (E. coli)) [mM] | IC50 of inhibition of β-Ala-Lys(AMCA) uptake into E. coli cells (0.2 mM substrate, 5 min, pH 6.5) [4] [mM] | IC50 of inhibition of β-Ala-Lys(AMCA) uptake into E. coli cells (0.2 mM substrate, 5 min, pH 6.5) [5] [mM] | IC50 of inhibition of β-Ala-Lys(AMCA) uptake into E. coli cells (0.2 mM substrate, 5 min, pH 6.5) (YjdL-Trp278Phe (E. coli)) [mM] | IC50 of inhibition of β-Ala-Lys(AMCA) uptake into E. coli cells (0.2 mM substrate, 5 min, pH 6.5) [6] [mM] | IC50 of inhibition of β-Ala-Lys(AMCA) uptake into E. coli cells (0.5 mM substrate, 15 min, pH 6.5) [6] [mM] | IC50 of inhibition of β-Ala-Lys(AMCA) uptake into E. coli cells (0.2 mM substrate, 5 min, pH 6.5) (YjdL Tyr25Phe (E. coli)) [mM] | IC50 of inhibition of β-Ala-Lys(AMCA) uptake into E. coli cells (0.2 mM substrate, 5 min, pH 6.5) [7] [mM] | IC50 of inhibition of β-Ala-Lys(AMCA) uptake into E. coli cells (0.5 mM substrate, 15 min, pH 6.5) [7] [mM] |
| --- | --- | --- | --- | --- | --- | --- | --- | --- | --- | --- | --- | --- | --- | --- | --- | --- | --- | --- | --- | --- |
| CSCC[C@H](N)C(=O)N[C@@H](CCCCN)C(=O)O [Met-Lys] (H-Met-Lys-OH) | 170 ± 10 | approximately 2 fold | 530 ± 30 | 610 ± 20 |  |  |  |  |  |  |  |  |  |  |  |  |  |  |  |  |
| NCCCC[C@H](NC(=O)[C@@H](N)Cc1c[nH]c2ccccc12)C(=O)O [Trp-Lys] (H-Trp-Lys-OH) | 90 ± 10 | approximately 2 fold | 600 ± 70 | 580 ± 60 |  |  |  |  |  |  |  |  |  |  |  |  |  |  |  |  |
| NCCCC[C@H](NC(=O)[C@@H](N)Cc1ccc(O)cc1)C(=O)O [Tyr-Lys] (H-Tyr-Lys-OH) | 30 | approximately 2 fold | 550 ± 40 | 670 ± 80 | approximately 10 fold |  |  |  |  |  |  |  |  |  |  |  |  |  |  |  |
| Ala-Ala (peptide) |  |  |  |  |  | < 10 | 0.15 | 4.5 | > 50 | 1.9 | 0.92 | 28.1 | 0.37 | 0.59 | 9.9 | 0.39 | 1.04 | > 50 | 2.8 | 2.2 |
| Ala-Gln (peptide) |  |  |  |  |  | < 10 |  | 1.1 | 21.7 | 1.1 |  | 2.5 |  |  | 0.9 |  |  | 36.1 | 0.6 | 1.9 |

— paper PMC3478282, “Probing the Putative Active Site of YjdL: An Unusual Proton-Coupled Oligopeptide Transporter from E. coli” (PLoS ONE, 2012)
